Experimental data: publication PMC12813979, “A Site-Specific Self-Association of a Protein Hub Drives Its Phase Separation” (ACS Chemical Biology, 2025)
* marks the point of attachment. Biotin = O=C1N[C@H]2[C@H](CS[C@H]2CCCCC(=O)*)N1

Experiments:
[1] = target: WD40 repeat protein 5 (WDR5), full-length (human, UniProt P61964 1-334); test: BLI; biotinylated MLL3Win peptide immobilised on streptavidin sensors; WDR5 (0.11-9.0 µM) or ΔN-WDR5 (0.10-9.0 µM) in the wells; 150 mM KCl, 20 mM Tris-HCl, 1 mM TCEP, 1 mg/mL BSA, pH 7.5; global fit of kon and koff, KD derived indirectly from them; triplicates; details: both partners purified
[2] = target: N-terminus truncated WDR5, WDR5 23-334 (human, UniProt P61964 23-334); test: as above; details: both partners purified

B1: Win-like motif-based peptide ligand of mixed lineage leukemia 3 (MLL3Win) (peptide)
chain: Biotin-VNPTGCARSEPKMS-NH2
SMILES: CSCC[C@H](NC(=O)[C@H](CCCCN)NC(=O)[C@@H]1CCCN1C(=O)[C@H](CCC(=O)O)NC(=O)[C@H](CO)NC(=O)[C@H](CCCNC(=N)N)NC(=O)[C@H](C)NC(=O)[C@H](CS)NC(=O)CNC(=O)[C@@H](NC(=O)[C@@H]1CCCN1C(=O)[C@H](CC(N)=O)NC(=O)[C@@H](NC(=O)CCCC[C@@H]1SC[C@@H]2NC(=O)N[C@@H]21)C(C)C)[C@@H](C)O)C(=O)N[C@@H](CO)C(N)=O
In the case of B1, the Kd [1] is reported as 190 nM, the koff [1] is reported as 0.012 s⁻¹ and the kon [1] is reported as 66000 M⁻¹ s⁻¹. The Kd [2] was 170 nM, the koff [2] was 0.0097 s⁻¹ and the kon [2] was 63000 M⁻¹ s⁻¹.
